# Assays:
# [1] = target: His-tagged FIV recombinant p24 capsid protein (Feline Immunodeficiency Virus, Petaluma strain) (Feline immunodeficiency virus (Petaluma strain)) (UniProt P16087); assay: dynamic light scattering; p24-His at 7 mg/ml, 50 mM sodium phosphate pH 7.4, 23°C; mean diameter 6.8 nm, single peak; monomer to dimer
# [2] = target: His-tagged FIV recombinant p24 capsid protein (Feline Immunodeficiency Virus, Petaluma strain) (Feline immunodeficiency virus (Petaluma strain)) (UniProt P16087); assay: ITC; dilution ITC: p24 at 7 mg/ml (243 µM) injected into buffer alone, 50 mM sodium phosphate pH 7.4, 30°C; dimer dissociation model; dimer to monomers
# [3] = target: His-tagged FIV recombinant p24 capsid protein (Feline Immunodeficiency Virus, Petaluma strain) (Feline immunodeficiency virus (Petaluma strain)) (UniProt P16087); assay: cross-linking; p24 at 7 mg/ml with BS3 (20:1 w/w BS3:p24), 30 min at room temperature, SDS-PAGE; dimer seen with and not without BS3; no higher molecular weight species
substance,measurement,setting,value
"His-tagged FIV recombinant p24 capsid protein (Feline Immunodeficiency Virus, Petaluma strain) (from UniProt P16087 136-357) (natural protein)",stoichiometry N,[1],2
same,Kd,[2],20 µM
same,stoichiometry N,[3],2
